Assay [1] concerns the target T1, P-S396 Tau in Alzheimer brain extracts (human, UniProt P10636 2-758, phosphoserine at 396).
T1 construct: Brain-derived; Defined by the western blot signal for P-S396; also called S-P396
In words: immunodepletion of AD brain extract, P-S396 western blot. Here is the method: FIG. 16. Quantification of P-S396 Tau western blot signal after immunodepleting Alzheimers diseased brain extracts using different amounts of hC10-2 variants N32S, N32Q, N32S_A101T, N32Q_ A101T, N32Q_D55E and N32S_ D55E.
Samples were boiled in 1×LDS loading buffer and 100 mM DTT. A volume corresponding to 3 μl of extracts were loaded on a 4-12% Bis-Tris NuPAGE Gel (LifeTech Novex). After electrophoresis, the proteins were blotted over to a ImmobilonFL PVDF membrane ([…], IPFL10100, Millipore). The membrane was blocked with SEA blocking buffer (Prod#37527, Thermo). Tau and P-tau levels were assessed in the samples using Tau5 (Abcam ab80579, 1:2000) mouse C10-2 (1 μg/ml), P-5199/202 (Invitrogen 44768 G, 1:1000), P-5422 (Abcam ab79415, 1:750), human IPN (1 μg/ml). Gapdh and actin were used as loading controls (Abcam ab9484, 1:2000, Sigma A5441, 1:20000). Secondary fluorophore conjugated IgG antibodies was used (IRDye 800CW Goat anti-Human, IRDye 800CW, Goat anti-rabbit, IRDye 680 Goat anti-mouse, LI-COR biosciences) and the signal was quantified using Odyssey CLx and Image studio software (LI-COR biosciences). Quantification of individual bands as well as signal in whole lanes was done and from this sigmoidal dose-response curves were plotted and when possible max effect and EC50 values were estimated.

Assay [2] has as its target T2, pathological hyperphosphorylated tau from human Alzheimer's disease brain (AD-P3 antigens) (human, UniProt P10636 2-758, hyperphosphorylated; phosphoserine at 396).
T2 construct: Brain-derived material with a mixture of tau isoforms and aggregates; Also used for tangles stained in AD brain sections and for the S1, S1p and P3 fractions and lysates of AD brain; also called P3 tau isolated from human AD brains
In words: binding to tau isolated from diseased and healthy brains.

The target of assay [3] is T3, Antibody C10-2 (humanized C10-2).
T3 construct: also called human C10-2; hC10-2
In words: fluid phase peptide inhibition of antibody binding to peptide-coated MSD wells. Here is the method:
(§1) FIG. 2. Peptide inhibition assay illustrating apparent affinity hC10-2 and related C10-2 variants.
(§2) Plates were washed 5 times in (PBS, 0.1% BSA, 0.1% NP40) and anti-human total Tau (MSD sulfo tagged 1:50) was added to detect bound antibody which reflect non-inhibited free antibody.

Assay [4] deals with Antibody N32S, A101T (hC10-2_N32S_A101T). Described as above. Here is the method:
as §1, §2

Assay [5] concerns the target T4, Antibody N32S (hC10-2_N32S).
T4 construct: Variant of humanized C10-2 with light chain N32S; also called hC10-2_N325; C10-2_N325
Described as above. As to the method:
as §1, §2

Substitutions are numbered along the chain they refer to. Names and notes keep the numbering of the source.

T1 sequence (P10636 other isoform, or with tags, fused parts or gaps limits assumed): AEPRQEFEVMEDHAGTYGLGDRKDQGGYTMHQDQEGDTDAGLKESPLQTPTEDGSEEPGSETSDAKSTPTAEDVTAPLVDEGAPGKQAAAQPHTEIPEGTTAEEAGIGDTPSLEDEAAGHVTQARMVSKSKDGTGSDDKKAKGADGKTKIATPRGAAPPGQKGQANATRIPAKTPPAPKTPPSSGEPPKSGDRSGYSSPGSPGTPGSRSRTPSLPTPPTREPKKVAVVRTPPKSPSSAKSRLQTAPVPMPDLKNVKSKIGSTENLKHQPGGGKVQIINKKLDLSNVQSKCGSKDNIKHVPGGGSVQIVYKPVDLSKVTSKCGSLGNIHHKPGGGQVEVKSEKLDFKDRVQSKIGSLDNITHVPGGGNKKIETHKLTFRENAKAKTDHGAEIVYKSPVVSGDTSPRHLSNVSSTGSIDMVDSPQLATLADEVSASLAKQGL
T2 sequence (P10636 other isoform, or with tags, fused parts or gaps limits assumed): as above

B1: Antibody N32Q (hC10-2_N32Q) (antibody, human IgG1, kappa, V domains shown)
VH: QVQLVQSGAEVVKPGASVKISCKASGYTFTDRTIHWVRQAPGQGLEWIGYIYPGDGSTKYSQKFQGRATLTADTSASTAYMELSSLRSEDTAVYYCARRGAMDYWGQGTSVTVSS
VL: DVQMTQSPSSLSASVGDRVTMTCQASQDTSIQLNWFQQKPGKAPKLLIYGASNLETGVPSRFSGSRSGTDFTLTISSLQPEDMATYYCLQHTYLPFTFGSGTKLEIKR
As to B1, the “percent decrease in the S-P396 signal at 75 ng antibody” value (shortened to “percent decrease in the S-P396 signal”) in assay [1] is no less than 28%.

B2: Antibody N32Q, A101T (hC10-2_N32Q_A101T) (antibody, human IgG1, kappa, V domains shown)
VH: B1 VH with A101T
VL: B1 VL
In the case of B2, the “percent decrease in the S-P396 signal” value in assay [1] was no less than 28%.

B3: hC10-2 variant N32S_D55E (antibody, human IgG1, kappa, V domains shown)
VH: B1 VH with D55E
VL: B1 VL with Q32S
notes: Chains are put together from the variant names: light chain N32S and heavy chain D55E; also called C10-2_N32S D55E
For B3, the “percent decrease in the S-P396 signal” value in assay [1] was no less than 28%.

B4: hC10-2 variant N32Q_D55E (antibody, human IgG1, kappa, V domains shown)
VH: B1 VH with D55E
VL: B1 VL
notes: Chains are put together from the variant names: light chain N32Q and heavy chain D55E
As for B4, the “percent decrease in the S-P396 signal” value in assay [1] worked out at 16%.

B5: IPN002 (antibody, V domains shown)
VH: EVHLVESGGALVKPGGSLKLSCAASGFSFSKYGMSWVRQTPDKRLEWVATISSSGSRTYYPDSVKGQFTISRDNAKNTLYLQMSSLKSEDTAMYYCSISWDGAMDYWGQGTSVTVSS
VL: DVLMTQTPLSLPVSLGDQASISCKSSQSIVHSNGNTYLEWYLQKPGQSPKLLVYKVSNRFSGVPDRFSGSGSGTDFTLKISRVEAEDLGTYYCFQGSLVPWAFGGGTKLEIK
For the molecule B5, in assay [2], the “AD/ctrl (binding to tau from AD brain over tau from healthy control brain)” value was 3 ratio.

B6: HJ8.5 (antibody, V domains shown)
VH: EVKVEESGGGLVQPGGSMKLSCVVSGFTFSNYWVNWVRQSPEKGLEWVAQIRLKSDNYATHYEESVKGRFTISRDDSKSSVYLQMNNLRAEDSGIYYCTNWEDYWGQGTTLTVSS
VL: DIVLTQSPASLAVSLGQRATISCRASQSVSTSRYSYIHWYQQKPGQPPKLLIKYASNLESGVPARFSGSGSGTDFTLNIHPLEEEDAATYYCHHSWEIPLTFGAGTKLELK
Take B6: the “AD/ctrl (binding to tau from AD brain over tau from healthy control brain)” value in assay [2] worked out at 3 ratio.

B7: Ptau (P396) 386-408 peptide (peptide)
peptide: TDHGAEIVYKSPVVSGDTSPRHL
modifications: phosphoserine at 396 (tau numbering)
What is called IC50 is the concentration that gives 50% inhibition. For B7, the IC50 in assay [3] was determined as 24 nM; in assay [4] it was 34 nM; in assay [5], 50 nM.
